Data published in the supplement of paper PMC7877785.
± gives the uncertainty stated by the source.

Assay: self-splicing fitness, log relative to wild type (ln ratio); higher = more splicing; Tetrahymena group I intron in knt gene, E. coli kanamycin selection, DiMSum; sequences stand for … in CUCUCU…GGAGGGAAAAGUUAUCAGGCAUGCACCUGGUAGCUAGUCUUUAAACCAAUAGAUUGCAUCGGUUUAAAAGGCAAGACCGUCAAAUUGCGGGAAAGGGGUCAACAGCCGUUCAGUACCAAGUCUCAGGGGAAACUUUGAGAUGGCCUUGCAAAGGGUAUGGUAAUAAGCUGACGGACAUGGUCCUAACCACGCAGCCAAGUCCUAAGUCAACAGAUCUUCUGUUGAUAUGGAUGCAGUUCACAGACUAAAUGUCGGUCGGGGAAGAUGUAUUCUUCUCAUAAGAUAUAGUCGGACCUCUCCUUAAUGGGAGCUAGCGGAUGAAGUGAUGCAACACUGGAGCCGCUGGGAACUAAUUUGUAUGCGAAAGUAUAUUGAUUAGUUUUGGAGUACUCGUGGUCG
Procedure, shortened: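 DiMSum derived fitness as the error-weighted combination of fold changes across replicates, kanamycin versus no kanamycin, normalised to wild type. E. coli BL21(DE3) held the library, which randomised all eight P1ex-region intron nucleotides within the knt kanamycin-resistance gene on pET-22b(+). Six replicate transformations grew overnight at 37°C or 30°C on LB agar with or without 25 μg/mL kanamycin, also containing 100 μg/mL carbenicillin, 50 μM IPTG and 0.2% rhamnose, and pooled colonies were amplicon-sequenced on an Illumina HiSeq 2500.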

Sequence: UCGUAGCAAUAUUACGUAAC
- self-splicing fitness (ln) (30 °C): -1.64 ± 0.34

Sequence: UGGAAGCAAUAUUACGAUGU
- self-splicing fitness (ln) (30 °C): -1.75 ± 0.21
- self-splicing fitness (ln) (37 °C): -2 ± 0.22

Sequence: UAGCAGCAAUAUUACGGGAU
- self-splicing fitness (ln) (30 °C): -4.22 ± 0.39
- self-splicing fitness (ln) (37 °C): -2.7 ± 0.26

Sequence: GCGGAGCAAUAUUACGUAGC
- self-splicing fitness (ln) (30 °C): -1.91 ± 0.28
- self-splicing fitness (ln) (37 °C): -2.38 ± 0.41

Sequence: CACGAGCAAUAUUACGCCUA
- self-splicing fitness (ln) (37 °C): -2.24 ± 0.45

Sequence: CUUAAGCAAUAUUACGCACU
- self-splicing fitness (ln) (30 °C): -2.93 ± 0.17
- self-splicing fitness (ln) (37 °C): -1.53 ± 0.17

Sequence: CGUAAGCAAUAUUACGCCCA
- self-splicing fitness (ln) (30 °C): -1.83 ± 0.19
- self-splicing fitness (ln) (37 °C): -0.135 ± 0.24

Sequence: CUUAAGCAAUAUUACGAAGA
- self-splicing fitness (ln) (30 °C): -2.98 ± 0.24
- self-splicing fitness (ln) (37 °C): -1.45 ± 0.26

Sequence: UUUUAGCAAUAUUACGGCCU
- self-splicing fitness (ln) (30 °C): -1.53 ± 0.26
- self-splicing fitness (ln) (37 °C): -1.87 ± 0.33

Sequence: UGGGAGCAAUAUUACGUGAG
- self-splicing fitness (ln) (30 °C): -2.33 ± 0.18
- self-splicing fitness (ln) (37 °C): -1.14 ± 0.14

Sequence: GAAGAGCAAUAUUACGUACU
- self-splicing fitness (ln) (30 °C): -2.11 ± 0.15
- self-splicing fitness (ln) (37 °C): -0.163 ± 0.13

Sequence: ACACAGCAAUAUUACGGGAA
- self-splicing fitness (ln) (30 °C): -2.99 ± 0.22
- self-splicing fitness (ln) (37 °C): -1.79 ± 0.14

Sequence: AUGUAGCAAUAUUACGGCGA
- self-splicing fitness (ln) (30 °C): -0.117 ± 0.088
- self-splicing fitness (ln) (37 °C): -0.00452 ± 0.11

Sequence: UUUCAGCAAUAUUACGGUGA
- self-splicing fitness (ln) (30 °C): -0.66 ± 0.056
- self-splicing fitness (ln) (37 °C): -0.395 ± 0.064

Sequence: GUACAGCAAUAUUACGAGUA
- self-splicing fitness (ln) (37 °C): -2.65 ± 0.31

Sequence: ACUGAGCAAUAUUACGAUAG
- self-splicing fitness (ln) (30 °C): -5.01 ± 0.39
- self-splicing fitness (ln) (37 °C): -1.78 ± 0.17

Sequence: UCAUAGCAAUAUUACGAAAC
- self-splicing fitness (ln) (30 °C): -2.6 ± 0.25

Sequence: ACUGAGCAAUAUUACGAUGG
- self-splicing fitness (ln) (30 °C): -2.16 ± 0.096
- self-splicing fitness (ln) (37 °C): -1.13 ± 0.1

Sequence: CAUAAGCAAUAUUACGGCGU
- self-splicing fitness (ln) (30 °C): -2.7 ± 0.15
- self-splicing fitness (ln) (37 °C): -0.836 ± 0.12

Sequence: GCGUAGCAAUAUUACGGGAA
- self-splicing fitness (ln) (30 °C): -1.38 ± 0.27
- self-splicing fitness (ln) (37 °C): -1.44 ± 0.34

Sequence: ACGGAGCAAUAUUACGUAGC
- self-splicing fitness (ln) (37 °C): -1.64 ± 0.21

Sequence: AGCGAGCAAUAUUACGGUUA
- self-splicing fitness (ln) (30 °C): -1.22 ± 0.12
- self-splicing fitness (ln) (37 °C): -1.9 ± 0.11

Sequence: UGGUAGCAAUAUUACGACGA
- self-splicing fitness (ln) (30 °C): -0.462 ± 0.14
- self-splicing fitness (ln) (37 °C): 1.24 ± 0.19

Sequence: CAAGAGCAAUAUUACGUAGG
- self-splicing fitness (ln) (30 °C): -1.4 ± 0.069
- self-splicing fitness (ln) (37 °C): -1.06 ± 0.1

Sequence: GGGUAGCAAUAUUACGUUUA
- self-splicing fitness (ln) (30 °C): -0.585 ± 0.12
- self-splicing fitness (ln) (37 °C): -0.381 ± 0.1

Sequence: UGUGAGCAAUAUUACGUAAG
- self-splicing fitness (ln) (30 °C): -1.7 ± 0.15
- self-splicing fitness (ln) (37 °C): -0.85 ± 0.21

Sequence: GACGAGCAAUAUUACGGCAA
- self-splicing fitness (ln) (30 °C): -1.91 ± 0.2
- self-splicing fitness (ln) (37 °C): -0.607 ± 0.14

Sequence: CUGGAGCAAUAUUACGAGAG
- self-splicing fitness (ln) (30 °C): -3.54 ± 0.36
- self-splicing fitness (ln) (37 °C): -3.53 ± 0.33

Sequence: GUAGAGCAAUAUUACGAAUC
- self-splicing fitness (ln) (30 °C): -1.28 ± 0.2
- self-splicing fitness (ln) (37 °C): -0.812 ± 0.29

Sequence: AAAUAGCAAUAUUACGCGUA
- self-splicing fitness (ln) (30 °C): -2.41 ± 0.21
- self-splicing fitness (ln) (37 °C): -1.04 ± 0.13

Sequence: AAUGAGCAAUAUUACGUUGG
- self-splicing fitness (ln) (30 °C): -3.18 ± 0.23
- self-splicing fitness (ln) (37 °C): -3.55 ± 0.27

Sequence: UCUAAGCAAUAUUACGGCAC
- self-splicing fitness (ln) (30 °C): -3.19 ± 0.44
- self-splicing fitness (ln) (37 °C): -2.85 ± 0.32

Sequence: GCUGAGCAAUAUUACGUUCU
- self-splicing fitness (ln) (30 °C): -0.944 ± 0.12
- self-splicing fitness (ln) (37 °C): -0.758 ± 0.15

Sequence: AACUAGCAAUAUUACGCUCG
- self-splicing fitness (ln) (30 °C): -0.797 ± 0.1
- self-splicing fitness (ln) (37 °C): -0.51 ± 0.13

Sequence: GUGGAGCAAUAUUACGCCGG
- self-splicing fitness (ln) (30 °C): -2.57 ± 0.46

Sequence: CUUAAGCAAUAUUACGAAGU
- self-splicing fitness (ln) (30 °C): -2.9 ± 0.13
- self-splicing fitness (ln) (37 °C): -2.19 ± 0.18

Sequence: CAUGAGCAAUAUUACGGCCG
- self-splicing fitness (ln) (30 °C): -1.25 ± 0.12
- self-splicing fitness (ln) (37 °C): -0.62 ± 0.16

Sequence: GGAUAGCAAUAUUACGAGGC
- self-splicing fitness (ln) (30 °C): -3.93 ± 0.31
- self-splicing fitness (ln) (37 °C): -2.43 ± 0.37

Sequence: GUCGAGCAAUAUUACGAUGC
- self-splicing fitness (ln) (30 °C): -1.17 ± 0.18
- self-splicing fitness (ln) (37 °C): -1.09 ± 0.18

Sequence: AAGUAGCAAUAUUACGAGGA
- self-splicing fitness (ln) (30 °C): -2.04 ± 0.32
- self-splicing fitness (ln) (37 °C): -2.12 ± 0.34

Sequence: AAUGAGCAAUAUUACGUUCA
- self-splicing fitness (ln) (30 °C): -1.46 ± 0.12
- self-splicing fitness (ln) (37 °C): -0.27 ± 0.13

Sequence: AUAAAGCAAUAUUACGACCU
- self-splicing fitness (ln) (30 °C): -0.0242 ± 0.097
- self-splicing fitness (ln) (37 °C): 0.381 ± 0.12

Sequence: CCCGAGCAAUAUUACGACAC
- self-splicing fitness (ln) (30 °C): -3.41 ± 0.4

Sequence: CGGCAGCAAUAUUACGUCCC
- self-splicing fitness (ln) (30 °C): -0.557 ± 0.23
- self-splicing fitness (ln) (37 °C): 0.728 ± 0.37

Sequence: UGUCAGCAAUAUUACGGUCG
- self-splicing fitness (ln) (30 °C): -0.443 ± 0.068
- self-splicing fitness (ln) (37 °C): 0.559 ± 0.11

Sequence: AACUAGCAAUAUUACGUUUG
- self-splicing fitness (ln) (30 °C): -3.27 ± 0.15
- self-splicing fitness (ln) (37 °C): -1.72 ± 0.14

Sequence: AAAAAGCAAUAUUACGAAAC
- self-splicing fitness (ln) (30 °C): -3.11 ± 0.22
- self-splicing fitness (ln) (37 °C): -2.36 ± 0.16

Sequence: UCGCAGCAAUAUUACGUCCU
- self-splicing fitness (ln) (30 °C): -1 ± 0.097
- self-splicing fitness (ln) (37 °C): -0.105 ± 0.092

Sequence: CAUAAGCAAUAUUACGUAUC
- self-splicing fitness (ln) (30 °C): -2.78 ± 0.2
- self-splicing fitness (ln) (37 °C): -2.72 ± 0.25

Sequence: AAAUAGCAAUAUUACGCGAA
- self-splicing fitness (ln) (30 °C): -1.42 ± 0.14
- self-splicing fitness (ln) (37 °C): -1.59 ± 0.16
